In one data set the target is T1, CIRV p19 (Carnation Italian ringspot virus, UniProt Q66104 1-172).
T1 sequence: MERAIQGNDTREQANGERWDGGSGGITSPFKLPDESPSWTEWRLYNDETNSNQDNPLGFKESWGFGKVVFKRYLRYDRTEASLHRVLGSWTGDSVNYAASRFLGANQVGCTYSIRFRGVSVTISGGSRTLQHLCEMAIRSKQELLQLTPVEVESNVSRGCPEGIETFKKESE
Briefly: EMSA. As to conditions: protein: recombinant, tags: GST tag removed (PreScission, pGEX-6P-1), chain copies: 2, label: 5'-32P, 3' overhangs 2 nt. In general terms: A gel shift assay detects complexes by their altered migration in electrophoresis.

The target of data set [1] is T2, TAV 2b (Tomato aspermy virus, UniProt Q8UYT3 1-95).
T2 sequence: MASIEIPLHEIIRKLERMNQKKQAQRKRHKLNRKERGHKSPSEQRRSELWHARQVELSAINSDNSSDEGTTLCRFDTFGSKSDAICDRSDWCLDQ
The experiment in a line: competition; Kc vs labeled gf698. As to conditions: protein: recombinant, tags: His-SUMO removed, chain copies: 2, label: 5'-32P, 3' overhangs 2 nt.

Data set [2] deals with the molecule itself. Briefly: AUC; analytical ultracentrifugation at protein concentrations of 1.2-13 uM (CIRV p19); data not shown; procedure as in ref. 36.
For data set [3], the target named is T2, TAV 2b. The experiment in a line: EMSA. Conditions: protein: recombinant; tags: His-SUMO removed; chain copies: 2; label: 5'-32P; 3' overhangs 2 nt.

B1: miR162-13gG/7*U (dsRNA)
RNA 1: UCGAUAAACCUCGGCAUCCAG
RNA 2: GGAUGCUGAGGUUCAUCGAUC
modifications: 5'-phosphate
Broadly, the Kd is the equilibrium constant for the complex coming apart. In the case of B1, in the data set with CIRV p19 (U-G wobble), the Kd was 1.53 ± 0.49 nM.

B2: miR162-14gU/6*G (dsRNA)
RNA 1: UCGAUAAACCUCUUCAUCCAG
RNA 2: GGAUGGAGAGGUUCAUCGAUC
modifications: 5'-phosphate
Take B2: in the data set with CIRV p19 (G-U wobble), the Kd was 0.45 ± 0.08 nM.

B3: miR162-12gG/8*G (dsRNA)
RNA 1: UCGAUAAACCUGUGCAUCCAG
RNA 2: GGAUGCAGAGGUUCAUCGAUC
modifications: 5'-phosphate
As to B3, in the data set with CIRV p19 (G/G mismatch), the Kd is 0.07 ± 0.04 nM.

B4: miR162-0 (dsRNA)
RNA 1: UCGAUAAACCUCUGCAUCCAG
RNA 2: GGAUGCAGAGGUUCAUCGAUC
modifications: 5'-phosphate
Regarding B4, the Kd with CIRV p19 is 0.15 ± 0.06 nM.

B5: miR162-18gC/2*C (dsRNA)
RNA 1: UCGAUAAACCUCUGCAUCCAG
RNA 2: GCAUGCAGAGGUUCAUCGAUC
modifications: 5'-phosphate
As for B5, the Kd in the data set with CIRV p19 (C/C mismatch) is 0.12 ± 0.08 nM.

B6: miR162-11gU/9*C (dsRNA)
RNA 1: UCGAUAAACCUCUGCAUCCAG
RNA 2: GGAUGCAGCGGUUCAUCGAUC
modifications: 5'-phosphate
For the molecule B6, the Kd with CIRV p19 (C/U mismatch) came to 0.22 ± 0.03 nM.

B7: miR162-14gG/6*A (dsRNA)
RNA 1: UCGAUAAACCUCUGCAUCCAG
RNA 2: GGAUGAAGAGGUUCAUCGAUC
modifications: 5'-phosphate
Regarding B7, the Kd with CIRV p19 (A/G mismatch) was 0.86 ± 0.49 nM.

B8: AtmiR168a (dsRNA)
RNA 1: UCGCUUGGUGCAGGUCGGGAA
RNA 2: CCCGCCUUGCAUCAACUGAAU
modifications: 5'-phosphate
Broadly, the Ki is a measure of affinity in units of concentration, obtained from inhibition or displacement. B8: the Kd with CIRV p19 (mismatches and G-U wobbles) is 2.49 ± 0.88 nM. In the data set with TAV 2b [1] (mismatches and G-U wobbles), the Ki was 12.1 ± 0.7 nM.

B9: miR162-12gG/8*U (dsRNA)
RNA 1: UCGAUAAACCUGUGCAUCCAG
RNA 2: GGAUGCAUAGGUUCAUCGAUC
modifications: 5'-phosphate
For B9, the Kd with CIRV p19 (U-G wobble) amounted to 0.31 ± 0.08 nM.

B10: miR162-16gU/4*G (dsRNA)
RNA 1: UCGAUAAACCUCUGCUUCCAG
RNA 2: GGAGGCAGAGGUUCAUCGAUC
modifications: 5'-phosphate
Regarding B10, the Kd in the data set with CIRV p19 (G-U wobble) was 0.17 ± 0.05 nM.

B11: AtmiR168a variant 4 (dsRNA)
RNA 1: UCGCUUGGUGCAGGUCGGGAA
RNA 2: CCCGACCUGCAUCAAAUGAAU
modifications: 5'-phosphate
For B11, the Kd with CIRV p19 (G-U wobbles) came to 2.65 ± 0.49 nM.

B12: miR162-19gU/1*G (dsRNA)
RNA 1: UCGAUAAACCUCUGCAUCUAG
RNA 2: GGAUGCAGAGGUUCAUCGAUC
modifications: 5'-phosphate
For the molecule B12, the Kd with CIRV p19 (G-U wobble) was 0.15 ± 0.12 nM.

B13: miR162-15gC/5*C (dsRNA)
RNA 1: UCGAUAAACCUCUGCAUCCAG
RNA 2: GGAUCCAGAGGUUCAUCGAUC
modifications: 5'-phosphate
Take B13: the Kd in the data set with CIRV p19 (C/C mismatch) was found to be 0.23 ± 0.08 nM.

B14: AtmiR168a variant 6 (dsRNA)
RNA 1: UCGCUUGGUGCAGGUCGGGAA
RNA 2: CCCGACCUGCACCAAGCGAAU
modifications: 5'-phosphate
Take B14: the Kd with CIRV p19 turned out to be 0.34 ± 0.16 nM. Besides, in the data set with TAV 2b [1], the Ki was 0.38 ± 0.05 nM.

B15: miR162-13gU/7*C (dsRNA)
RNA 1: UCGAUAAACCUCUGCAUCCAG
RNA 2: GGAUGCCGAGGUUCAUCGAUC
modifications: 5'-phosphate
For the molecule B15, the Kd with CIRV p19 (C/U mismatch) amounted to 1.01 ± 0.1 nM.

B16: miR162-10gU/10*G (dsRNA)
RNA 1: UCGAUAAACUUCUGCAUCCAG
RNA 2: GGAUGCAGAGGUUCAUCGAUC
modifications: 5'-phosphate
Regarding B16, in the data set with CIRV p19 (G-U wobble), the Kd is 0.63 ± 0.21 nM.

B17: miR162-12gU/8*G (dsRNA)
RNA 1: UCGAUAAACCUUUGCAUCCAG
RNA 2: GGAUGCAGAGGUUCAUCGAUC
modifications: 5'-phosphate
With B17, the Kd with CIRV p19 (G-U wobble) is 1.93 ± 0.13 nM.

B18: miR162-11gU/9*G (dsRNA)
RNA 1: UCGAUAAACCUCUGCAUCCAG
RNA 2: GGAUGCAGGGGUUCAUCGAUC
modifications: 5'-phosphate
As to B18, the Kd with CIRV p19 (G-U wobble) amounted to 0.14 ± 0.12 nM.

B19: miR162-19gC/1*C (dsRNA)
RNA 1: UCGAUAAACCUCUGCAUCCAG
RNA 2: CGAUGCAGAGGUUCAUCGAUC
modifications: 5'-phosphate
Consider B19, for which, in the data set with CIRV p19 (C/C mismatch), the Kd was found to be 0.34 ± 0.15 nM.

B20: AtmiR168a variant 2 (dsRNA)
RNA 1: UCGCUUGGUGCAGGUCGGGAA
RNA 2: CCCGCCUUGCACCAACUGAAU
modifications: 5'-phosphate
Turning to B20, the Kd in the data set with CIRV p19 (mismatches and G-U wobbles) was determined as 0.71 ± 0.28 nM. Further, in the data set with TAV 2b [1] (mismatches and G-U wobbles), the Ki came to 1.1 ± 0.2 nM.

B21: AtmiR168a variant 5 (dsRNA)
RNA 1: UCGCUUGGUGCAGGUCGGGAA
RNA 2: CCCGACUUGCACCAAGUGAAU
modifications: 5'-phosphate
Take B21: the Kd in the data set with CIRV p19 (G-U wobbles) is 0.48 ± 0.17 nM. The Ki in the data set with TAV 2b [1] (G-U wobbles) worked out at 1.4 ± 0.2 nM.

B22: AtmiR168a variant 1 (dsRNA)
RNA 1: UCGCUUGGUGCAGGUCGGGAA
RNA 2: CCCGCCCUGCAUCAACUGAAU
modifications: 5'-phosphate
Turning to B22, the Kd in the data set with CIRV p19 (mismatches and G-U wobbles) was determined as 3.13 ± 1.67 nM.

B23: miR162-13gU/7*G (dsRNA)
RNA 1: UCGAUAAACCUCUGCAUCCAG
RNA 2: GGAUGCGGAGGUUCAUCGAUC
modifications: 5'-phosphate
For B23, the Kd with CIRV p19 (G-U wobble) is 1.82 ± 0.38 nM.

B24: miR162-17gU/3*G (dsRNA)
RNA 1: UCGAUAAACCUCUGCAUCCAG
RNA 2: GGGUGCAGAGGUUCAUCGAUC
modifications: 5'-phosphate
In the case of B24, in the data set with CIRV p19 (G-U wobble), the Kd stood at 0.09 ± 0.04 nM.

B25: AtmiR168a variant 3 (dsRNA)
RNA 1: UCGCUUGGUGCAGGUCGGGAA
RNA 2: CCCGCCCUGCACCAACUGAAU
modifications: 5'-phosphate
Take B25: the Kd with CIRV p19 (mismatches) turned out to be 1 ± 0.24 nM. For the same molecule, the Ki in the data set with TAV 2b [1] (mismatches) worked out at 2.2 ± 0.4 nM.

B26: miR162-12gC/8*A (dsRNA)
RNA 1: UCGAUAAACCUCUGCAUCCAG
RNA 2: GGAUGCAAAGGUUCAUCGAUC
modifications: 5'-phosphate
As for B26, in the data set with CIRV p19 (A/C mismatch), the equilibrium dissociation constant (Kd) is 0.16 ± 0.03 nM.

B27: p19 protein of Carnation Italian ringspot virus (CIRV) (natural protein)
chain: T1 sequence
notes: p19 suppressor of RNA silencing, Carnation Italian ringspot virus (Tombusvirus); the p19 ORF cloned into pGEX-6P-1, GST removed with PreScission protease; Residues of the vector may be left at the N-terminus after PreScission cleavage (surmised); also called CIRV p19; p19 wt; source: E. coli BL21 (DE3) RIPL, purified (GSTrap, PreScission cleavage, Resource Q anion exchange)
In general, stoichiometry N refers to a count of units in the complex or per binding partner. On to B27, for which the “stoichiometry N” value in data set [2] amounted to 2.

B28: miR162-16gA/4*G (dsRNA)
RNA 1: UCGAUAAACCUCUGCAUCCAG
RNA 2: GGAGGCAGAGGUUCAUCGAUC
modifications: 5'-phosphate
In the case of B28, the Kd with CIRV p19 (G/A mismatch) is 0.38 ± 0.13 nM.

B29: gf698 siRNA (dsRNA)
RNA 1: UAGUUCAUCCAUGCCAUGUGU
RNA 2: ACAUGGCAUGGAUGAACUAUA
modifications: 5'-phosphate
As to B29, the Kd in the data set with CIRV p19 is 0.06 ± 0.04 nM; with TAV 2b [3], 0.68 ± 0.15 nM. In the data set with TAV 2b [1], the Ki was determined as 0.53 ± 0.08 nM.

B30: miR162-14gG/6*U (dsRNA)
RNA 1: UCGAUAAACCUCUGCAUCCAG
RNA 2: GGAUGUAGAGGUUCAUCGAUC
modifications: 5'-phosphate
In the case of B30, in the data set with CIRV p19 (U-G wobble), the Kd is 0.15 ± 0.09 nM.

B31: miR162-18gU/2*G (dsRNA)
RNA 1: UCGAUAAACCUCUGCAUUCAG
RNA 2: GGAUGCAGAGGUUCAUCGAUC
modifications: 5'-phosphate
B31: in the data set with CIRV p19 (G-U wobble), the Kd turned out to be 0.13 ± 0.03 nM.

B32: miR162-15gU/5*G (dsRNA)
RNA 1: UCGAUAAACCUCUGUAUCCAG
RNA 2: GGAUGCAGAGGUUCAUCGAUC
modifications: 5'-phosphate
As to B32, the Kd with CIRV p19 (G-U wobble) was 0.1 ± 0.01 nM.

B33: miR162-17gU/3*C (dsRNA)
RNA 1: UCGAUAAACCUCUGCAUCCAG
RNA 2: GGCUGCAGAGGUUCAUCGAUC
modifications: 5'-phosphate
Consider B33, for which the Kd with CIRV p19 (C/U mismatch) is 0.3 ± 0.17 nM.

B34: miR162-12gC/8*C (dsRNA)
RNA 1: UCGAUAAACCUCUGCAUCCAG
RNA 2: GGAUGCACAGGUUCAUCGAUC
modifications: 5'-phosphate
With B34, the Kd in the data set with CIRV p19 (C/C mismatch) stood at 0.28 ± 0.24 nM.

B35: AtmiR162 (dsRNA)
RNA 1: UCGAUAAACCUCUGCAUCCAG
RNA 2: GGAGGCAGCGGUUCAUCGAUC
modifications: 5'-phosphate
Regarding B35, the Kd with CIRV p19 (mismatches) amounted to 0.06 ± 0.02 nM. Besides, the Ki with TAV 2b [1] (mismatches) amounted to 0.67 ± 0.09 nM.

B36: miR162-10gC/10*A (dsRNA)
RNA 1: UCGAUAAACCUCUGCAUCCAG
RNA 2: GGAUGCAGAAGUUCAUCGAUC
modifications: 5'-phosphate
As for B36, the Kd with CIRV p19 (A/C mismatch) was found to be 0.35 ± 0.24 nM.

B37: miR162-10gC/10*C (dsRNA)
RNA 1: UCGAUAAACCUCUGCAUCCAG
RNA 2: GGAUGCAGACGUUCAUCGAUC
modifications: 5'-phosphate
With B37, the Kd with CIRV p19 (C/C mismatch) worked out at 1.73 ± 0.57 nM.
